In paper PMC8440562, “MAD2L2 dimerization and TRIP13 control shieldin activity in DNA repair” (Nature Communications, 2021):

B1: His6-EGFP-TRIP13^E253Q (enzyme, human, UniProt Q15645 1-432, looked up)
chain: MDEAVGDLKQALPCVAESPTVHVEVHQRGSSTAKKEDINLSVRKLLNRHNIVFGDYTWTEFDEPFLTRNVQSVSIIDTELKVKDSQPIDLSACTVALHIFQLNEDGPSSENLEEETENIIAANHWVLPAAEFHGLWDSLVYDVEVKSHLLDYVMTTLLFSDKNVNSNLITWNRVVLLHGPPGTGKTSLCKALAQKLTIRLSSRYRYGQLIEINSHSLFSKWFSESGKLVTKMFQKIQDLIDDKDALVFVLIDQVESLTAARNACRAGTEPSDAIRVVNAVLTQIDQIKRHSNVVILTTSNITEKIDVAFVDRADIKQYIGPPSAAAIFKIYLSCLEELMKCQIIYPRQQLLTLRELEMIGFIENNVSKLSLLLNDISRKSEGLSGRVLRKLPFLAHALYVQAPTVTIEGFLQALSLAVDKQFEERKKLAAYI
notes: TRIP13, human, with E253Q; printed mass of GFP-TRIP13 75.5 kDa; source: insect cells (Hi5, baculovirus, biGBac), purified
B2: TRIP13^E253Q (48.5 kDa form, Fig. 3f) (enzyme, human, UniProt Q15645 1-432, looked up)
chain: MDEAVGDLKQALPCVAESPTVHVEVHQRGSSTAKKEDINLSVRKLLNRHNIVFGDYTWTEFDEPFLTRNVQSVSIIDTELKVKDSQPIDLSACTVALHIFQLNEDGPSSENLEEETENIIAANHWVLPAAEFHGLWDSLVYDVEVKSHLLDYVMTTLLFSDKNVNSNLITWNRVVLLHGPPGTGKTSLCKALAQKLTIRLSSRYRYGQLIEINSHSLFSKWFSESGKLVTKMFQKIQDLIDDKDALVFVLIDQVESLTAARNACRAGTEPSDAIRVVNAVLTQIDQIKRHSNVVILTTSNITEKIDVAFVDRADIKQYIGPPSAAAIFKIYLSCLEELMKCQIIYPRQQLLTLRELEMIGFIENNVSKLSLLLNDISRKSEGLSGRVLRKLPFLAHALYVQAPTVTIEGFLQALSLAVDKQFEERKKLAAYI
notes: TRIP13, human, with E253Q; printed mass 48.5 kDa (291 kDa for hexamer); The printed mass fits TRIP13 without the EGFP fusion; source: insect cells (Hi5, baculovirus, biGBac), purified
B3: MBP-SHLD3^28-83 (domain or fragment, human, UniProt Q6ZNX1 28-83, looked up)
chain: QDFPTRPLSRFIPWFPYDGSKLPLRPKRSPPVISEEAAEDVKQYLTISEHDAKSHS
notes: SHLD3, human, residues 28-83; contains only the second RBM; also called SHLD3^28-83 peptide; SHLD3-fragment; source: E. coli Rosetta, purified (metal chelating column, SEC); not shown: hexahistidine-MBP, N-terminal, kept

Tests used:
[1] = molecular target: the molecule itself; experiment: SEC; Superdex-200 in buffer C (25 mM Tris pH 8, 0.3 M NaCl, 10% glycerol, 0.5 mM TCEP, 10 mM MgCl2) + 0.1 mM ATP; proteins incubated 2 h on ice with 2 mM ATP before the run; equimolar in Fig. 3f
[2] = molecular target: T1, MAD2L2^WT (E. coli) (human, UniProt Q9UI95 1-211); experiment: pull-down; 0.25 uM MBP-SHLD3^28-83 pre-adsorbed on amylose beads, eightfold molar excess of MAD2L2 variant, time course at 4 C in buffer B (10 mM HEPES pH 7.5, 0.15 M NaCl, 5% glycerol, 0.5 mM TCEP); Coomassie SDS-PAGE; details: both partners purified
T1 construct: MAD2L2 (REV7), human; source: E. coli Rosetta, purified (metal chelating column, PreScission cleavage, SEC); not shown: GST/hexahistidine-MBP fusion-tag, N-terminal, cleaved

[3] = molecular target: T2, MAD2L2^1xMut (E. coli) (human, UniProt Q9UI95 1-211, R124A); experiment: as above; details: both partners purified
T2 construct: MAD2L2 (REV7), human, with R124A; also called MAD2L2^R124A; source: E. coli Rosetta, purified (metal chelating column, PreScission cleavage, SEC); not shown: GST/hexahistidine-MBP fusion-tag, N-terminal, cleaved

[4] = molecular target: T3, MAD2L2^3xMut (E. coli) (human, UniProt Q9UI95 1-211, K44A | R124A | A135D); experiment: as above; details: both partners purified
T3 construct: MAD2L2 (REV7), human, with K44A, R124A and A135D; also called MAD2L2^K44A/R124A/A135D; source: E. coli Rosetta, purified (metal chelating column, PreScission cleavage, SEC); not shown: GST/hexahistidine-MBP fusion-tag, N-terminal, cleaved
T3 sequence (Q9UI95 whole entry K44A/R124A/A135D, the tested form may be a part): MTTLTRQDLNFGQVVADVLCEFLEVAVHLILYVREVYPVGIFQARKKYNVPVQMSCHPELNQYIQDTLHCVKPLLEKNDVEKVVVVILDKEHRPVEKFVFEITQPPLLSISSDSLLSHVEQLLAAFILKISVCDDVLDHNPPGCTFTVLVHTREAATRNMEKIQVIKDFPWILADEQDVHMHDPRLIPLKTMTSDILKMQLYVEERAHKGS

T2 sequence (Q9UI95 whole entry R124A, the tested form may be a part): as the sequence (Q9UI95 whole entry K44A/R124A/A135D, the tested form may be a part) above, with A44K, D135A counted along it
T1 sequence (Q9UI95 whole entry, the tested form may be a part): as the sequence (Q9UI95 whole entry K44A/R124A/A135D, the tested form may be a part) above, with A44K, A124R, D135A counted along it

| Binder | stoichiometry N [1] | binding result [2] | binding result [3] | binding result [4] |
| --- | --- | --- | --- | --- |
| B1 | 6 |  |  |  |
| B2 | 6 |  |  |  |
| B3 |  | binds | binds | binds |
